From patent US20070212355A1 (priority 2005, published 2007)
Where a chain is given by its changes, count along the chain named. In names and notes the source's numbering stands. Like-named read-outs stand apart in the source and are kept apart here. Values belong to the molecule of their own block, whether it stands above or below them. Ends that are not written are not given here.

Legend:
mutated human GLP-2R [1] = target: T1, mutated human GLP-2R (Homo sapiens, UniProt O95838, E512D/G511A/L513V); assay: cAMP expression assay in HEK 293E clonal cell line expressing mutated human GLP-2R; format: cell-based; conditions: for activity relative to wild type GLP-2 (times less): from Table 5 EC50 values
T1 construct: expressed in transfected cells; host or cells: HEK 293E clonal cell line
T1 sequence (O95838 1-553 G511A/E512D/L513V): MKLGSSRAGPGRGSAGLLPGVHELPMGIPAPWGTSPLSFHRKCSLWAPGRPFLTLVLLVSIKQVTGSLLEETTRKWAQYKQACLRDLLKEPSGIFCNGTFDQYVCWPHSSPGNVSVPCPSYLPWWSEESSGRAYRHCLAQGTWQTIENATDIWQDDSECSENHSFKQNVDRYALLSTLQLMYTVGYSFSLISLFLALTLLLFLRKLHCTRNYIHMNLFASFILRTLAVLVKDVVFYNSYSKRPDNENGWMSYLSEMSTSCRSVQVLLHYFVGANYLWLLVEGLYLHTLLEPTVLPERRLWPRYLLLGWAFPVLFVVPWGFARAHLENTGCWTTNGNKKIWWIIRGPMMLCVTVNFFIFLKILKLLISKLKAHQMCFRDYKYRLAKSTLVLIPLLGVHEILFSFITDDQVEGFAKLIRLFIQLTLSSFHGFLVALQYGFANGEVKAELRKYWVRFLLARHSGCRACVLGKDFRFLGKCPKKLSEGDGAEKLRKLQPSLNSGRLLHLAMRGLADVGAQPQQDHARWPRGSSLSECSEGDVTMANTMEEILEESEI
Description: To achieve this goal, a clonal cell line expressing a mutated human GLP-2R was generated by transfecting HEK 293E cells. The mutated human GLP-2R differs from the wild-type human GLP-2R (SEQ ID NO: 35) at three amino acid positions within the C-terminal intracellular region (SEQ ID NO: 36).
The cAMP expression was quantitated using the cAMP Direct Screen System (Cat. No. CSD 200, Applied Biosystems, Bedford, Mass.).
This assay was based on the cAMP Direct Screen System from Applied Biosystems utilizing a cell line expressing mutated huGLP-2R in HEK 293E cells. Peptide at concentrations ranging from 0.01 nM to 1.0 uM in PBS with 0.5% BSA was added to ˜50,000 cells suspended in 96-well plates. After a 30-minute incubation at 37° C., Lysis Buffer followed by luminescence reagents (Applied Biosystems) was added according to the manufacturers' procedures (Applied Biosystems Luminescence protocol: cAMP-Screen Direct System). Luminescence was quantitated using a TopCount liquid scintillation analyzer (PerkinElmer), and data was processed using Softmax software (Molecular Devices Corporation).

[2] = CD spectra secondary structure of peptides; format: physicochemical; conditions: 0.2 mg/mL in PBS, 25° C.
Protocol: The secondary structures of tested peptides were determined using 0.2 mg/mL peptide solutions in PBS. Briefly, CD spectra were collected in triplicate at 1 nm intervals at 25° C. in 0.1 cm path length cell. Secondary structures were determined by fitting of the CD spectra using CD spectra software (CD Spectra Deconvolution software 2.1). All tested peptides contained peaks corresponding to the presence of alpha helices.

[3] = SEC-SLS self-association of peptides in PBS (pH 7.5); format: physicochemical; conditions: 1 mg/ml
Protocol: The self-association poses a challenge to the development and manufacturing of a homogeneous therapeutic.
Solution molecular weight of the peptides was measured by SEC-SLS. Briefly, peptide solutions in PBS (pH 7.5) at 0.4 to 2.0 mg/mL were fractionated over a Superdex peptide column (Amersham Pharmacia). The eluted peaks were monitored by static light scattering at 690 nm and solution molecular weight was determined at UV 280 nm using the Astra software package (Wyatt Inc.).

[4] = target: mutated human GLP-2R (human) (UniProt O95838); assay: cell-based or functional assay
mutated human GLP-2R [5] = target: T2, mutated human GLP-2R (human, UniProt O95838 1-553); assay: cell-based or functional assay
T2 chain: T1 sequence (O95838 1-553 G511A/E512D/L513V)

mutated human GLP-2R [6] = target: T2, mutated human GLP-2R; assay: cell-based or functional assay
[7] = target: the molecule itself; assay: SEC-SLS, self-association in PBS pH 7.5
[8] = Table 1, mimetibodies with variable linker length / V2 variant, read-out: EC50
[9] = Table 2, mimetibodies with Pro substitution, read-out: EC50

Molecule: SEQ ID NO: 11: A2G GLP-2 mimetibody V2 region variant; core […] (HGDGSFSDEMNTILDNLAARDFINWLIQTKITDGSGGGSGALVAVSSESKYGPPCPPCP; chains of the parent or of the whole protein)
EC50 (mutated human GLP-2R [1]; [8]): 3.1 nM

Molecule: SEQ ID NO: 45: GLP-2 mimetibody Pro substitution variant; core […] (HGDGSFSDEMNTILDNLAARDFINWLIQTKITDGSGGGSGALVAVSSESKPGPPCPPCP)
EC50 (mutated human GLP-2R [1]; [9]): 5.8 nM

Molecule: SEQ ID NO: 79: GLP-1 peptide included as control in the characterization of the analogs [reference compound]
Helix (percentage of helical structure) [2]: 16.8%
Random coil (percentage) [2]: 41.9%
SEC-SLS elution / self-association state [3]: single peak with molecular weight within the expected monomer size

B1: A2G GLP-2 mimetibody linker length variant SEQ ID NO: 6 (Fc fusion, part only; not given: CH2 and CH3 domains, part only)
chain, part: HGDGSFSDEMNTILDNLAARDFINWLIQTKITDGGGGSCPPCP
modifications: cysteine pairing not given here; also: partial core, CH2-CH3 domains follow in the full mimetibody
EC50 (nM), cAMP expression assay [4]: 40 nM

B2: A2G GLP-2 mimetibody V2 region variant SEQ ID NO: 11 (Fc fusion, not shown: a dimerising Fc or GST)
chain: HGDGSFSDEMNTILDNLAARDFINWLIQTKITDGSGGGSGALVAVSSESKYGPPCPPCP
EC50 (nM), cAMP expression assay [4]: 3.1 nM

B3: GLP-2 mimetibody Pro substitution variant SEQ ID NO: 45 (Fc fusion, not shown: a dimerising Fc or GST)
chain: B2 chain with Y51P
EC50 (nM), cAMP expression assay [4]: 5.8 nM

B4: GLP-2 mimetibody Pro substitution variant SEQ ID NO: 43 (Fc fusion, not shown: a dimerising Fc or GST)
chain: B2 chain with S46P
EC50 (nM), cAMP expression assay [4]: 4.8 nM

B5: GLP-2 mimetibody Pro substitution variant SEQ ID NO: 42 (Fc fusion, not shown: a dimerising Fc or GST)
chain: B2 chain with A44P
EC50 (nM), cAMP expression assay [4]: 3.6 nM

B6: GLP-2 mimetibody Pro substitution variant SEQ ID NO: 44 (Fc fusion, not shown: a dimerising Fc or GST)
chain: B2 chain with S47P
EC50 (nM), cAMP expression assay [4]: 7.7 nM

B8: A2S GLP-2 peptide (peptide)
peptide: HSDGSFSDEMNTILDNLAARDFINWLIQTKITD
EC50, cAMP expression (mutated human GLP-2R [6]): 0.5 nM

B9: GLP-2(A2G, L17Q) (peptide)
peptide: B8 peptide with S2G, L17Q
notes: Synthetic analog of human GLP-2, >95% purity; also called GLP-2(A2G, L17Q) peptide
cAMP in Vitro EC50 values (mutated human GLP-2R [5]): 5.2 nM
activity in cAMP expression assay, fold less than wild type GLP-2 (mutated human GLP-2R [6]): 3 fold
binding result [7]: no binding (tested: 1 mg/ml)

B10: A2G GLP-2 mimetibody linker length variant SEQ ID NO: 9 (Fc fusion, part only; not given: CH2 and CH3 domains, part only)
chain, part: HGDGSFSDEMNTILDNLAARDFINWLIQTKITDGGGGSGGGGSGGGGSGGGGSCPPCP
modifications: cysteine pairing not given here; also: partial core, CH2-CH3 domains follow in the full mimetibody
EC50 (nM), cAMP expression assay [4]: 4.6 nM

B12: A2S GLP-2 IgG4 mimetibody (Fc fusion)
chain: HSDGSFSDEMNTILDNLAARDFINWLIQTKITDGSGGGSGTLVTVSSESKYGPPCPPCPAPEAAGGPSVFLFPPKPDTLMISRTPEVTCVVVDVSQEDPEVQFNWYVDGVEVHNAKTKPREEQFNSTYRVVSVLTVLHQDWLNGKEYKCKVSNKGLPSSIEKTISKAKGQPREPQVYTLPPSQEEMTKNQVSLTCLVKGFYPSDIAVEWESNGQPENNYKTTPPVLDSDGSFFLYSRLTVDKSRWQEGNVFSCSVMHEALHNHYTQKSLSLSLGK
EC50, cAMP expression (mutated human GLP-2R [6]): 2.2 nM
potency in cAMP expression assay, fold less than the corresponding peptide (mutated human GLP-2R [6]): ~4 fold

B13: A2G GLP-2 mimetibody linker length variant SEQ ID NO: 7 (Fc fusion, part only; not given: Fc CH2 and CH3 domains, part only)
chain, part: HGDGSFSDEMNTILDNLAARDFINWLIQTKITDGGGGSGGGGSCPPCP
modifications: cysteine pairing not given here; also: partial core, CH2-CH3 domains follow in the full mimetibody
EC50 (nM), cAMP expression assay [4]: 22.5 nM

B14: A2G GLP-2 mimetibody linker length variant SEQ ID NO: 8 (Fc fusion, part only; not given: CH2 and CH3 domains, part only)
chain, part: HGDGSFSDEMNTILDNLAARDFINWLIQTKITDGGGGSGGGGSGGGGSCPPCP
modifications: cysteine pairing not given here; also: partial core, CH2-CH3 domains follow in the full mimetibody
EC50 (nM), cAMP expression assay [4]: 12.7 nM

Continued, in another order:

activity relative to wild type GLP-2 (times less) (mutated human GLP-2R [1]): 2 ×
Random coil (percentage) [2]: 41.4%
Helix (percentage of helical structure) ([2]; listed as GLP-2(A2G, N16G, L17Q)): 17.0%
SEC-SLS elution / self-association state [3]: mainly monomeric peptide
Molecule: HGDGSFSDEMNTILDGQAARDFINWLIQTKITD [SEQ ID NO: 55]

activity relative to wild type GLP-2 (times less) (mutated human GLP-2R [1]): 3 ×
Random coil (percentage) [2]: 41.8%
Helix (percentage of helical structure) ([2]; listed as GLP-2(A2G, L17Q)): 16.9%
SEC-SLS elution / self-association state [3]: mainly monomeric peptide
Molecule: HGDGSFSDEMNTILDNQAARDFINWLIQTKITD [SEQ ID NO: 54]

EC50 (mutated human GLP-2R [1]; Example 2, 30 minutes incubation, mimetibodies vs corresponding peptides, read-out: EC50, stimulation of cAMP expression): 0.5 nM
Molecule: HSDGSFSDEMNTILDNLAARDFINWLIQTKITD [SEQ ID NO: 2, reference compound]

EC50 (mutated human GLP-2R [1]; [8]): 40 nM
Molecule: SEQ ID NO: 6: A2G GLP-2 mimetibody linker variant; core HGDGSFSDEMNTILDNLAARDFINWLIQTKITDGGGGSCPPCP (cysteine pairing not given here; also: core of a mimetibody, fused to further protein chains)

EC50 (mutated human GLP-2R [1]; [8]): 22.5 nM
Molecule: SEQ ID NO: 7: A2G GLP-2 mimetibody linker variant; core HGDGSFSDEMNTILDNLAARDFINWLIQTKITDGGGGSGGGGSCPPCP (cysteine pairing not given here; also: core of a mimetibody, fused to further protein chains)

EC50 (mutated human GLP-2R [1]; [8]): 12.7 nM
Molecule: SEQ ID NO: 8: A2G GLP-2 mimetibody linker variant; core HGDGSFSDEMNTILDNLAARDFINWLIQTKITDGGGGSGGGGSGGGGSCPPCP (cysteine pairing not given here; also: core of a mimetibody, fused to further protein chains)

EC50 (mutated human GLP-2R [1]; [8]): 4.6 nM
Molecule: SEQ ID NO: 9: A2G GLP-2 mimetibody linker variant; core HGDGSFSDEMNTILDNLAARDFINWLIQTKITDGGGGSGGGGSGGGGSGGGGSCPPCP (cysteine pairing not given here; also: core of a mimetibody, fused to further protein chains)

EC50 (mutated human GLP-2R [1]; [9]): 3.6 nM
Molecule: SEQ ID NO: 42: GLP-2 mimetibody Pro substitution variant; core HGDGSFSDEMNTILDNLAARDFINWLIQTKITDGSGGGSGALVPVSSESKYGPPCPPCP (Mimetibody)

cAMP in Vitro EC50 values (mutated human GLP-2R [5]): 3.5 nM
activity in cAMP expression assay, fold less than wild type GLP-2 (mutated human GLP-2R [6]): 2 fold
B7: GLP-2(A2G, N16G, L17Q) (peptide)
peptide: B8 peptide with S2G, N16G, L17Q
notes: Synthetic analog of human GLP-2, >95% purity; also called GLP-2(A2G,N16G, L17Q) peptide
binding result [7]: no binding (tested: 1 mg/ml)

EC50 (mutated human GLP-2R [1]; [8]): 2.1 nM
B11: SEQ ID NO: 10: A2G GLP-2 mimetibody linker variant; core HGDGSFSDEMNTILDNLAARDFINWLIQTKITDGGGGSGGGGSGGGGSGGGGSGGGGSCPPCP (protein)
chain: HGDGSFSDEMNTILDNLAARDFINWLIQTKITDGGGGSGGGGSGGGGSGGGGSGGGGSCPPCP
modifications: chains of the parent or of the whole protein
